Laboratory results: patent US20030092613A1, “Alpha7 nicotinic receptor peptides as ligands for beta amyloid peptides” (priority 2000, published 2003)

T1: 125I-α-bungarotoxin, P60615
T1 chain: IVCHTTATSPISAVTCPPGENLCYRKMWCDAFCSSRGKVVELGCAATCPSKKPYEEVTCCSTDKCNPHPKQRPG


Key:
[1] = molecular target: T1, 125I-α-bungarotoxin, P60615
[2] = molecular target: β-amyloid1-42, P05067; test: cell-based or functional assay

Row | Binder | IC50 [1] [µM] | ACh rel % Inh @ 100 µM [2] [%] | Inh ACh rel IC50 [2] [µM]
1 | Ac-SERAYECCKEP-NH2 (cysteine pairing not given here) | > 100 | 14 | > 10
2 | Ac-SARFYECCKEP-NH2 (cysteine pairing not given here) | 8.4 | 13 | > 10
3 | Ac-AERFYECCKEP-NH2 (cysteine pairing not given here) | 15 | 15 | > 10
4 | Ac-IPGKRSERFYECCKEPYPDV-NH2 (cysteine pairing not given here) | 0.2 | 73 | 0.626
5 | Ac-SERFAECCKEP-NH2 (cysteine pairing not given here) | > 100 | 18 | > 10
6 | Ac-SERFYACCKEP-NH2 (cysteine pairing not given here) | 9.5 | 14 | > 10
7 | Ac-SERFYECCKAP-NH2 (cysteine pairing not given here) | > 100 | 75 | 0.426
8 | Ac-SERFYECCAEP-NH2 (cysteine pairing not given here) | 1.3 | 19 | > 10
9 | Ac-SERFYECCKEA-NH2 (cysteine pairing not given here) | > 100 | 59 | < 10
10 | Ac-SERFYEACKEP-NH2 | > 100 | 19 | > 10
11 | Ac-SEAFYECCKEP-NH2 (cysteine pairing not given here) | 9.6 | 70 | 0.277
12 | Ac-GIPGKRSERFYECCK-NH2 (cysteine pairing not given here) |  | 73 | 1.21
13 | Ac-SERFYECCKEP-NH2 (cysteine pairing not given here) | 19 | 89 | 0.125
14 | Ac-IPGKRSERFYECCKEPYP-NH2 (cysteine pairing not given here) |  | 79 | 0.71
15 | Ac-SERFYECAKEP-NH2 | > 100 | 85 | 0.165
